Measured values reported in patent US20050054563A1 (Genentech, published 2005).
One block for each binder: values may come before it.

How the values were obtained:
[1] = target: T1, mouse WISP-1-IgG (chimeric recombinant mouse WISP-1 bearing a human immunoglobulin Fc fragment tag) (mouse); assay: competition solid phase assay: 0.25 nM WISP-1-IgG on coated human skin fibroblast conditioned media, soluble biglycan varied
T1 construct: also called mWISP-1-IgG; WISP-1-Fc
Method: (§1) Decorin and biglycan were coated to microtiter wells overnight. Non-specific binding sites were saturated and 0.25 nM of mWISP-1-IgG was incubated for 2 hours. The wells were washed and incubated with horseradish peroxidase conjugated anti-human IgG Fc′ (2 μg/ml) for 1 hour. After 6 washes with PBS containing 0.05% Tween-20, a signal was developed by the incubation of a chromogenic substrate. The color development was stopped by the addition of 1 M phosphoric acid and the O.D. at 450 nm was measured.
(§2) Fifty microliters of human skin fibroblast conditioned media were coated in wells of microtiter plates. Non-specific binding sites were saturated and 0.25 nM of WISP-1-IgG was incubated in the presence of various concentrations of decorin (filled circles) or biglycan (empty circles) (FIG. 5B) for 2 hours. The binding of mWISP-1-IgG was evaluated as described above.

[2] = target: T1, mouse WISP-1-IgG (chimeric recombinant …); assay: competition solid phase assay: 0.25 nM WISP-1-IgG on coated human skin fibroblast conditioned media, soluble decorin varied
Method: as §1, §2

T1 sequence (chain, as listed by the source mutant limits assumed): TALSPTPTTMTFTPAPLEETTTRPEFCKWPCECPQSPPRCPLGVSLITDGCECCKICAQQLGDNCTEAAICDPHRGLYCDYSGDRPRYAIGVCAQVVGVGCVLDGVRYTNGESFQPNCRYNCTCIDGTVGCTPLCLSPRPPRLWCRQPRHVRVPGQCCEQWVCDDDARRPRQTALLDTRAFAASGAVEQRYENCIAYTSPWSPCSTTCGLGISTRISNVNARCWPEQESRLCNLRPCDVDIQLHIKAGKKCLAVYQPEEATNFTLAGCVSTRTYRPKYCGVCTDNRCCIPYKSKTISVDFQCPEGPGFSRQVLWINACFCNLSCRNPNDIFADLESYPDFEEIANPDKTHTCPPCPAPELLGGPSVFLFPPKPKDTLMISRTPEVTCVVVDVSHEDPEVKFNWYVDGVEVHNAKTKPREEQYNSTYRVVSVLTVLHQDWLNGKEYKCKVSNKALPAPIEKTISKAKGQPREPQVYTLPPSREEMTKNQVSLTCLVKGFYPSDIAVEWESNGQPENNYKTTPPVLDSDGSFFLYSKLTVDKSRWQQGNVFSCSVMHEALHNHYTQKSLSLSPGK

IC50 [1]: 105 µg/mL
B1: biglycan from bovine articular cartilage (Sigma) (other, UniProt P21809 38-369, looked up)
chain: DEEASGAETTSGIPDLDSLPPTYSAMCPFGCHCHLRVVQCSDLGLKAVPKEISPDTTLLDLQNNDISELRKDDFKGLQHLYALVLVNNKISKIHEKAFSPLRKLQKLYISKNHLVEIPPNLPSSLVELRIHDNRIRKVPKGVFSGLRNMNCIEMGGNPLENSGFEPGAFDGLKLNYLRISEAKLTGIPKDLPETLNELHLDHNKIQAIELEDLLRYSKLYRLGLGHNQIRMIENGSLSFLPTLRELHLDNNKLSRVPAGLPDLKLLQVVYLHTNNITKVGVNDFCPVGFGVKRAYYNGISLFNNPVPYWEVQPATFRCVTDRLAIQFGNYKK
modifications: proteoglycan; glycosaminoglycan chains on the core protein (sites not stated for this preparation)

IC50 [2]: 70 µg/mL
B2: decorin from bovine articular cartilage (Sigma) (other, UniProt P21793 31-360, looked up)
chain: DEASGIGPEEHFPEVPEIEPMGPVCPFRCQCHLRVVQCSDLGLEKVPKDLPPDTALLDLQNNKITEIKDGDFKNLKNLHTLILINNKISKISPGAFAPLVKLERLYLSKNQLKELPEKMPKTLQELRVHENEITKVRKSVFNGLNQMIVVELGTNPLKSSGIENGAFQGMKKLSYIRIADTNITTIPQGLPPSLTELHLDGNKITKVDAASLKGLNNLAKLGLSFNSISAVDNGSLANTPHLRELHLNNNKLVKVPGGLADHKYIQVVYLHNNNISAIGSNDFCPPGYNTKKASYSGVSLFSNPVQYWEIQPSTFRCVYVRAAVQLGNYK
modifications: proteoglycan; dermatan sulfate glycosaminoglycan chain on the core protein (site not stated for this preparation)
